According to PMC3163267, “Structure and Organisation of SinR, the Master Regulator of Biofilm Formation in Bacillus subtilis” (Journal of Molecular Biology, 2011):

B1: single-site SinRBM duplex (dsDNA)
DNA 1: AATTTTTCGTTCTTTATAAAAT
DNA 2: ATTTTATAAAGAACGAAAAATT
B2: SinI (natural protein, B. subtilis, UniProt P23308 1-57, looked up)
chain: MKNAKQEHFELDQEWVELMVEAKEANISPEEIRKYLLLNKKSAHPGPAARSHTVNPF
notes: Cloned into the same modified pET28 vector and cleaved as described for SinR, so a residual N-terminal Gly-Pro-Ala probably remains (surmised); Dimer by SEC-MALLS
B3: SinR(74–111) (domain or fragment, B. subtilis, UniProt P06533 74-111, looked up)
chain: LDSEWEKLVRDAMTSGVSKKQFREFLDYQKWRKSQKEE
notes: SinR, Bacillus subtilis, C-terminal domain, residues 74–111; A selenomethionine form was also crystallised; also called C-terminal domain of SinR; not shown: His6, N-terminal, cleaved
B4: SinR (natural protein, B. subtilis, UniProt P06533 1-111, looked up)
chain: MIGQRIKQYRKEKGYSLSELAEKAGVAKSYLSSIERNLQTNPSIQFLEKVSAVLDVSVHTLLDEKHETEYDGQLDSEWEKLVRDAMTSGVSKKQFREFLDYQKWRKSQKEE
notes: After cleavage with human rhinovirus 3C protease a residual N-terminal Gly-Pro-Ala is expected to remain; Tetramer by SEC-MALLS; also called intact SinR; full-length SinR; not shown: His6, N-terminal, cleaved
B5: tandem repeat SinRBM duplex (dsDNA)
DNA 1: GTCGTTCTCTCGTTCTCTATAA
DNA 2: TTATAGAGAACGAGAGAACGAC

Legend:
SinR [1] = biological target: T1, SinR (Bacillus subtilis, UniProt P06533 1-111); assay: fluorescence anisotropy; FA: 10 mM Hepes pH 8.0, 100 mM NaCl, 1 mM DTT, 1 mM EDTA, 5 nM HEX-DNA, 25 C; SPR: 10 mM Hepes pH 8.0, 150 mM NaCl, 3 mM EDTA, 0.05% P20; conditions: protein: recombinant; tags: N-terminal Gly-Pro-Ala left after 3C cleavage of His6 tag; chain copies: 4; label: 5' HEX on one strand; 22 bp
T1 sequence: B4 chain

SinR [2] = biological target: B4; assay: SEC-MALS; SEC-MALLS on Superdex 75 HR 10/30; 25 mM Tris pH 8.5, 200 mM NaCl, 0.5 mM EDTA; 100 µl samples of 1 mg/ml protein or an equimolar mixture of SinR and SinI; conditions: both partners purified
[3] = biological target: the molecule itself; assay: as above

Binder	Kd (SinR [1]) [µM]	stoichiometry N (SinR [2])	stoichiometry N [3]
B1	2.8		
B2		1	2
B3			4
B4			4
B5	3.7		
